{"source": "patent US20120107229A1", "about": "“NOVEL NANO-PROBES FOR MOLECULAR IMAGING AND TARGETED THERAPY OF DISEASES” (priority 2009, published 2012)", "origin": "cited, not measured here", "molecular_target": "T1, CD44 (Homo sapiens, UniProt P16070)", "T1 construct": "host or cells: melanoma cells (collagen fragment only)", "T1 sequence (P16070 21-742, species assumed)": "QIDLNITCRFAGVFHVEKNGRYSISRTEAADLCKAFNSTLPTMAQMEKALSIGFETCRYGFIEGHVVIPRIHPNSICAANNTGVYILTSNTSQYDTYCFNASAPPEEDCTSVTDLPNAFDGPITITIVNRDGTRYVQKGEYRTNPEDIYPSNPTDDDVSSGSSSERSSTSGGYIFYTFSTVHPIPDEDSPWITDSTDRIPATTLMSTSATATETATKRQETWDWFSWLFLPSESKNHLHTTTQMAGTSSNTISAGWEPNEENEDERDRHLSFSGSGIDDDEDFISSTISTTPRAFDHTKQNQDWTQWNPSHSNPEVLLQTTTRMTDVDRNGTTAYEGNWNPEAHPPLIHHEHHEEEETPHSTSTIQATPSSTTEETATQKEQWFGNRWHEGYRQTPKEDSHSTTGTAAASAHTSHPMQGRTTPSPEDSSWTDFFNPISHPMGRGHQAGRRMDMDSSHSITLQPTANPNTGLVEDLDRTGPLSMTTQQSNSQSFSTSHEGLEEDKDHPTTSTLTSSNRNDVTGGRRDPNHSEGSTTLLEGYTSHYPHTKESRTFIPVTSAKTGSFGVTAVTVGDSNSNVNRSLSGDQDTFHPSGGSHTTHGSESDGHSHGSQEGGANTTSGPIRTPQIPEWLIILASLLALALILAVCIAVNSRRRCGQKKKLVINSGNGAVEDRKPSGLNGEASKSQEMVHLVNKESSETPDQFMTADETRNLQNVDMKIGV", "data": [{"sequence": "GVKGDKGNPGWPGAP", "values": [{"measurement": "binding to CD44 on cells", "setting": "melanoma cells", "result": "found to bind with CD44 on melanoma cells"}]}, {"sequence": "KNNQKSEPLIGRKKT", "values": [{"measurement": "share of the binding of CD44 to intact fibronectin", "setting": "fibronectin digestion and fractionation studies", "result": 65.5, "unit": "%"}]}]}
